This note sets out measurements from patent publication US20160310607A1, “CELL TRANSPORT” (CUPID PEPTIDE COMPANY LIMITED, priority 2013, published 2016).

Test [1] has as its system PTEN. Nature of the test: Inositol phospholipid levels in starving Dictyostelium cells (solvent extraction, thin layer chromatography). The settings on record: 10 micromolar, 1 hour, starving wild-type Dictyostelium. In kind it is cell-based, Dictyostelium discoideum. The method, then: FIG. 9. The levels of the 4 inositol phospholipids (PI, PIP, PIP2 and PIP3) in wild-type Dictyostelium cells undergoing starvation were measured by solvent extraction of cell cultures and analysis using thin layer chromatography. The effect of Cupid B-PTEN peptide treatment (10 micromolar, 1 hour) was calculated as a percentage change in the basal (untreated) levels.
The PTEN protein has a phospholipase enzymatic activity that functions to remove phosphate groups from inositol-based lipids and as such is involved with maintaining the balance between varieties of inositol phospholipids present at the cell surface. In wild-type cells undergoing starvation the inositol phospholipids with 3 and 4 phosphate groups (PIP2 and PIP3) are kept low, largely due to the action of PTEN.
We determined the effect of Cupid B-PTEN peptide on the inositol phospholipid levels in Dictyostelium cultures. Cupid B-PTEN peptide treated cells (10 micromolar, 1 hour) alters the basal levels of inositol phospholipids in Dictyostelium cells.

In test [2] the test system is PTEN. The experiment in a line: Streaming and aggregation of starved wild-type Dictyostelium cultures compared with the PTEN null mutant. Type of test: cell-based, Dictyostelium discoideum. As to conditions: 10 micromolar, wild-type cells, visualised after 10 hours. On the procedure:
FIG. 8. Cupid can transport large molecule cargo into the cell. Starved Dictyostelium cultures were plated into petri dishes in starvation buffer and visualised after 10 hours. In untreated wild-type (WT) cultures (A), cells stream together into aggregation centres, co-ordinated by cell to cell signaling.
In Dictyostelium, a genetic mutant in which the PTEN gene is absent causes marked changes in phenotype.

Test [3] deals with Dictyostelium discoideum amoeba cells. The experiment in a line: Permeation of FITC-labelled peptides into cultured Dictyostelium cells (fluorescence microscopy). As to conditions: FITC-labelled peptide, 20 micromolar, 1 hour. Type of test: cell-based. The method, then:
Peptides were labelled with Fluorescein isothiocyanate (FITC) using a FITC labeling kit as per instructions (Pierce, UK). When added to cell cultures the labeled peptides were visualized using a fluorescent microscope by exciting the FITC with a 488 nm spectral line, argon-ion laser (Excitation wavelength of 494 nm and an Emission wavelength of 518 nm).
AX2 wild type Dictyostelium cells were grown on SM agar plates seeded with Aerobacter aerogenes bacteria (also known as Klebsiella aerogenes) as a food source.
Cupid A ([…]) and Cupid B ([…]) were chemically synthesized labelled with FITC at the amino terminal. The peptides were added to cultured eukaryotic cells of Dictyostelium discoideum amoeba for varying amounts of time up to 2 hours. Cells were then washed and prepared for examination under a fluorescent microscope (FIG. 1). The time courses of permeation were compared to the class 3 CPP, the Antennapedia peptide, pANT which was also labelled with FITC in chemical synthesis (FIG. 2).

The test system of test [4] is PTEN. Nature of the test: Protein phosphorylation response to cyclic AMP in starving Dictyostelium cultures (antibody detection on SDS gels). As to conditions: pre-treated for 1 hour with 10 micromolar peptide. In kind it is cell-based, Dictyostelium discoideum. The text has this:
FIG. 10. In starving Dictyostelium cultures, several proteins undergo rapid phosphorylation/dephosphorylation events in response to an applied dose of cyclic AMP. The strength of this response is limited by PTEN enzyme activity. This response is visualised with antibody detection of these phosphoproteins on SDS gels prepared from extracted cultures at the time points indicated after the cAMP dose.
In starving Dictyostelium cultures, several proteins undergo rapid phosphorylation/dephosphorylation events in response to an applied dose of cyclic AMP. The strength of this initial phosphorylation response is limited by PTEN enzyme activity and is associated with changes in PIP2 and PIP3 inositol phospholipid levels.

B1: Cupid B-PTEN: Cupid B fused to a 167 amino acid region (C2 region, 186-352) of human PTEN, with 6x Histidine (protein)
chain: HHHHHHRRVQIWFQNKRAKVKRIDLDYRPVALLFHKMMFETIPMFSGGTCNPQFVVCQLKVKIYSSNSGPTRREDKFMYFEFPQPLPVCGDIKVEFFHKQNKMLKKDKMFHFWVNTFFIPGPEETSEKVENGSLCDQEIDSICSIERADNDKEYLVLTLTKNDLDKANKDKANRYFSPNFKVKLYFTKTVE
modifications: FITC label
notes: Cupid B fused to a 167 amino acid region (C2 region, 186-352) of human PTEN, with 6x Histidine
As for B1, the “change of PIP2 level relative to untreated basal level” value in the test with PTEN [1] is recorded as “+75%”. Further, the “change of PIP3 level relative to untreated basal level” value with PTEN [1] was “+150%”. In addition, the “streaming/aggregation behaviour of starved wild-type Dictyostelium” value is given as “exhibit the same distinctive behaviour as the PTEN-Null strain” in the test on PTEN [2] and “cells failed to stream together or aggregate” with PTEN [2] (listed as Cupid-PTEN). Further, the “cell permeation (fluorescence microscopy)” value in test [3] was “cell permeable”. Moreover, the figures for the “initial phosphorylation response to cyclic AMP versus untreated cultures” value in the test with PTEN [4] and in the test with PTEN [4] (listed as Cupid-PTEN) were “much stronger initial phosphorylation response” and “much greater phosphorylation response”, respectively.
